# Results taken from patent publication US20230140293A1.
# Tests used:
# Assay in all cases: cell-based or functional assay
# [1] = molecular target: HIV-1 clade C strain 426c Env on Env-pseudotyped virus produced in 293s/GnTI-/- cells (Man5-enrichment) (HIV-1)
# [2] = molecular target: CH0505.w4.3 Env, Env-pseudotyped virus produced in 293T cells (HIV-1)
# [3] = molecular target: HIV-1 clade C strain 426c Env on Env-pseudotyped virus produced in 293T cells (HIV-1)
# [4] = molecular target: HIV-1 426c.TM (N276D/N460D/N463D) Env on Env-pseudotyped virus produced in 293T cells (HIV-1)
# [5] = molecular target: HIV-1 Env 426c.SM (N276D), Env-pseudotyped virus produced in 293T cells (HIV-1 clade C strain 426c)
# [6] = molecular target: HIV-1 426c.DM (N460D/N463D) Env on Env-pseudotyped virus produced in 293T cells (HIV-1)
# [7] = molecular target: CH0505TF.G458Y Env, Env-pseudotyped virus produced in 293S GnTI- cells (Man5-enriched) (HIV-1)
# [8] = molecular target: HIV-1 Env 426c.TM (N276D.N460D.N463D), Env-pseudotyped virus produced in 293T cells (HIV-1 clade C strain 426c)
# [9] = molecular target: HIV-1 426c.TM (N276D/N460D/N463D) Env on Env-pseudotyped virus produced in 293s/GnTI-/- cells (Man5-enrichment) (HIV-1)
# [10] = molecular target: CH0505TF.G458Y Env, Env-pseudotyped virus produced in 293T cells (HIV-1)
# [11] = molecular target: CH0505TF Env, Env-pseudotyped virus produced in 293S GnTI- cells (Man5-enriched) (HIV-1)
# [12] = molecular target: HIV-1 426c.SM (N276D) Env on Env-pseudotyped virus produced in 293T cells (HIV-1)
# [13] = molecular target: HIV-1 Env 426c, Env-pseudotyped virus produced in 293T cells (HIV-1 clade C strain 426c)
# [14] = molecular target: CH0505TF.gly4 Env, Env-pseudotyped virus produced in 293S GnTI- cells (Man5-enriched) (HIV-1)
# [15] = molecular target: CH0505TF.gly3.197 Env, Env-pseudotyped virus produced in 293T cells (HIV-1)
# [16] = molecular target: HIV-1 426c.DM (N460D/N463D) Env on Env-pseudotyped virus produced in 293s/GnTI-/- cells (Man5-enrichment) (HIV-1)
# [17] = molecular target: CH0505TF.gly3.461 Env, Env-pseudotyped virus produced in 293T cells (HIV-1)
# [18] = molecular target: HIV-1 Env 426c.SM (N276D), Env-pseudotyped virus produced in 293S GnTI- cells (Man5-enriched) (HIV-1 clade C strain 426c)
# [19] = molecular target: CH0505TF.gly3.276 Env, Env-pseudotyped virus produced in 293S GnTI- cells (Man5-enriched) (HIV-1)
# [20] = molecular target: CH0505TF Env, Env-pseudotyped virus produced in 293T cells (HIV-1)
# [21] = molecular target: HIV-1 Env 426c.DM (N460D.N463D), Env-pseudotyped virus produced in 293T cells (HIV-1 clade C strain 426c)
# [22] = molecular target: CH0505TF.gly4 Env, Env-pseudotyped virus produced in 293T cells (HIV-1)
# [23] = molecular target: HIV-1 Env 426c.TM4 (S278R.G471S.N460D.N463D), Env-pseudotyped virus produced in 293S GnTI- cells (Man5-enriched) (HIV-1 clade C strain 426c)
# [24] = molecular target: HIV-1 Env 426c.TM4 (S278R.G471S.N460D.N463D), Env-pseudotyped virus produced in 293T cells (HIV-1 clade C strain 426c)
# [25] = molecular target: HIV-1 Env 426c, Env-pseudotyped virus produced in 293S GnTI- cells (Man5-enriched) (HIV-1 clade C strain 426c)
# [26] = molecular target: CH0505TF.gly3.461 Env, Env-pseudotyped virus produced in 293S GnTI- cells (Man5-enriched) (HIV-1)
# [27] = molecular target: CH0505TF.gly3.276 Env, Env-pseudotyped virus produced in 293T cells (HIV-1)
# [28] = molecular target: CH0505TF.gly3.197 Env, Env-pseudotyped virus produced in 293S GnTI- cells (Man5-enriched) (HIV-1)
# [29] = molecular target: HIV-1 426c.SM (N276D) Env on Env-pseudotyped virus produced in 293s/GnTI-/- cells (Man5-enrichment) (HIV-1)
# [30] = molecular target: HIV-1 Env 426c.TM (N276D.N460D.N463D), Env-pseudotyped virus produced in 293S GnTI- cells (Man5-enriched) (HIV-1 clade C strain 426c)
# [31] = molecular target: HIV-1 Env 426c.DM (N460D.N463D), Env-pseudotyped virus produced in 293S GnTI- cells (Man5-enriched) (HIV-1 clade C strain 426c)
Substance,ID50/IC50 in TZM-bl [1] [µg/mL],IC50 (µg/ml) in TZM-bl [2] [µg/mL],ID50/IC50 in TZM-bl [3] [µg/mL],ID50/IC50 in TZM-bl [4] [µg/mL],IC50 (µg/ml) in TZM-bl [5] [µg/mL],ID50/IC50 in TZM-bl [6] [µg/mL],IC50 (µg/ml) in TZM-bl [7] [µg/mL],IC50 (µg/ml) in TZM-bl [8] [µg/mL],ID50/IC50 in TZM-bl [9] [µg/mL],IC50 (µg/ml) in TZM-bl [10] [µg/mL],IC50 (µg/ml) in TZM-bl [11] [µg/mL],ID50/IC50 in TZM-bl [12] [µg/mL],IC50 (µg/ml) in TZM-bl [13] [µg/mL],IC50 (µg/ml) in TZM-bl [14] [µg/mL],IC50 (µg/ml) in TZM-bl [15] [µg/mL],ID50/IC50 in TZM-bl [16] [µg/mL],IC50 (µg/ml) in TZM-bl [17] [µg/mL],IC50 (µg/ml) in TZM-bl [18] [µg/mL],IC50 (µg/ml) in TZM-bl [19] [µg/mL],IC50 (µg/ml) in TZM-bl [20] [µg/mL],also measured
CH01 (antibody),> 25,> 20,> 25,> 25,> 25,> 25,0.1,> 25,> 25,1,0.8,> 25,> 25,0.1,3.8,> 25,7.7,> 25,1,4.1,IC50 (µg/ml) in TZM-bl [21]: > 25 µg/mL; IC50 (µg/ml) in TZM-bl [22]: 8.8 µg/mL; IC50 (µg/ml) in TZM-bl [23]: > 25 µg/mL; IC50 (µg/ml) in TZM-bl [24]: > 25 µg/mL; IC50 (µg/ml) in TZM-bl [25]: > 25 µg/mL; IC50 (µg/ml) in TZM-bl [26]: 0.09 µg/mL; IC50 (µg/ml) in TZM-bl [27]: 5.7 µg/mL; IC50 (µg/ml) in TZM-bl [28]: 0.22 µg/mL; ID50/IC50 in TZM-bl [29]: > 25 µg/mL; IC50 (µg/ml) in TZM-bl [30]: > 25 µg/mL; IC50 (µg/ml) in TZM-bl [31]: > 25 µg/mL
DH511.2_K3 (antibody),0.85,0.02,0.8,1.06,0.77,1.5,1.2,1.06,1.2,0.6,0.95,0.77,0.8,1.1,3.1,0.75,2.8,0.87,1.7,3.4,IC50 (µg/ml) in TZM-bl [21]: 1.5 µg/mL; IC50 (µg/ml) in TZM-bl [22]: 2.1 µg/mL; IC50 (µg/ml) in TZM-bl [23]: 0.56 µg/mL; IC50 (µg/ml) in TZM-bl [24]: 0.56 µg/mL; IC50 (µg/ml) in TZM-bl [25]: 0.85 µg/mL; IC50 (µg/ml) in TZM-bl [26]: 1.6 µg/mL; IC50 (µg/ml) in TZM-bl [27]: 2.9 µg/mL; IC50 (µg/ml) in TZM-bl [28]: 2.5 µg/mL; ID50/IC50 in TZM-bl [29]: 0.87 µg/mL; IC50 (µg/ml) in TZM-bl [30]: 1.2 µg/mL; IC50 (µg/ml) in TZM-bl [31]: 0.75 µg/mL
F105 (antibody),> 25,10.8,> 25,> 25,> 25,> 25,> 25,> 25,> 25,> 25,> 25,> 25,> 25,> 25,> 25,> 25,> 25,> 25,> 25,> 25,IC50 (µg/ml) in TZM-bl [21]: > 25 µg/mL; IC50 (µg/ml) in TZM-bl [22]: > 25 µg/mL; IC50 (µg/ml) in TZM-bl [23]: > 25 µg/mL; IC50 (µg/ml) in TZM-bl [24]: > 25 µg/mL; IC50 (µg/ml) in TZM-bl [25]: > 25 µg/mL; IC50 (µg/ml) in TZM-bl [26]: > 25 µg/mL; IC50 (µg/ml) in TZM-bl [27]: > 25 µg/mL; IC50 (µg/ml) in TZM-bl [28]: > 25 µg/mL; ID50/IC50 in TZM-bl [29]: > 25 µg/mL; IC50 (µg/ml) in TZM-bl [30]: > 25 µg/mL; IC50 (µg/ml) in TZM-bl [31]: > 25 µg/mL
